Data: the supplement of paper PMC7125110
± gives the standard error. Variants at the floor of the assay were thinned out.

B1: glmS ribozyme (parent)
chain: AUAAAAGCGCCAGAACUACAGAAAUGUAGUUGACGAGGAGGAGGUUUAUCGAAUUUUCGGCGGAUGCCUCCAAA

Assays:
Conditions in all cases: with glucosamine-6-phosphate
glucosamine-6-phosphate [1] = variants of: B1; assay: self-cleavage kobs at 160 uM GlcN6P; higher = faster cleavage; RNA array
How it was run: (§1)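 A hybridised Cy3 probe tracked barcoded ribozyme variants, transcribed in situ by E. coli RNA polymerase on sequenced MiSeq chips, at 37 °C. The variants received 40 μM to 10 mM glucosamine-6-phosphate in HEPES/KCl/Mg(OAc)2 buffer. kobs came from decay fits and kcat and KM from weighted Michaelis–Menten fits.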

glucosamine-6-phosphate [2] = variants of: B1; assay: self-cleavage kobs at 640 uM GlcN6P; higher = faster cleavage; RNA array
How it was run: as §1

glucosamine-6-phosphate [3] = variants of: B1; assay: self-cleavage kobs at 2500 uM GlcN6P; higher = faster cleavage; RNA array
How it was run: as §1

glucosamine-6-phosphate [4] = variants of: B1; assay: self-cleavage kobs at 10000 uM GlcN6P; higher = faster cleavage; RNA array
How it was run: as §1

Variant | self-cleavage kobs at 160 uM GlcN6P (glucosamine-6-phosphate [1]) | self-cleavage kobs at 640 uM GlcN6P (glucosamine-6-phosphate [2]) | self-cleavage kobs at 2500 uM GlcN6P (glucosamine-6-phosphate [3]) | self-cleavage kobs at 10000 uM GlcN6P (glucosamine-6-phosphate [4])
G40U G43C C68G | 0.000486 ± 0.00015 s⁻¹ | 0.000552 ± 0.00012 s⁻¹ | 0.00105 ± 0.00026 s⁻¹ | 
G13A A14C U30G |  | 4.76e-05 ± 1.8e-05 s⁻¹ |  | 
A33C G37A G63C | < 1e-05 s⁻¹ | < 1e-05 s⁻¹ | < 1e-05 s⁻¹ | 
C10U C50G C68U C71A |  | 9.29e-05 ± 2.6e-05 s⁻¹ | 0.000111 ± 2.9e-05 s⁻¹ | 
C8A G13U G35U C68G | 0.000168 ± 3.8e-05 s⁻¹ |  |  | 
C11U A33U A53C |  | < 1e-05 s⁻¹ |  | 
G38U A64U C70G |  | 8.06e-05 ± 3.4e-05 s⁻¹ |  | 
C10U A12U G44A U49C C70G | < 1e-05 s⁻¹ | < 1e-05 s⁻¹ | < 1e-05 s⁻¹ | 
G13A U30A U31A A42C U46G | < 1e-05 s⁻¹ |  | < 1e-05 s⁻¹ | 
C11U G35U G44A |  | < 1e-05 s⁻¹ | < 1e-05 s⁻¹ | 
U47G C70U C71G |  | 0.000118 ± 2.3e-05 s⁻¹ |  | 
C8G A14C G29C C34A C67U |  | < 1e-05 s⁻¹ |  | 
C8G C11U A15U U57G |  | < 1e-05 s⁻¹ |  | 
G9C G29C A52U C70U |  | < 1e-05 s⁻¹ | < 1e-05 s⁻¹ | < 1e-05 s⁻¹
G32A G40U A48U |  | < 1e-05 s⁻¹ |  | 
A33C A48C |  | < 1e-05 s⁻¹ | < 1e-05 s⁻¹ | 
G29U U47A A64U |  | < 1e-05 s⁻¹ |  | 
A33G U47G A48C G51C | < 1e-05 s⁻¹ |  |  | 
G35U C50U | < 1e-05 s⁻¹ |  |  | < 1e-05 s⁻¹
A6C G7A G29A C71U |  | < 1e-05 s⁻¹ | < 1e-05 s⁻¹ | 
G38C G62U | < 1e-05 s⁻¹ |  | < 1e-05 s⁻¹ | < 1e-05 s⁻¹
A15U G35A C68U |  | < 1e-05 s⁻¹ | < 1e-05 s⁻¹ | 
C8U A64G C67G |  | < 1e-05 s⁻¹ |  | 
G40C C50U G60C |  | < 1e-05 s⁻¹ |  | < 1e-05 s⁻¹
G9A C16U G41A A48U | < 1e-05 s⁻¹ | < 1e-05 s⁻¹ | < 1e-05 s⁻¹ | < 1e-05 s⁻¹
G13C G37A G62A |  | < 1e-05 s⁻¹ | < 1e-05 s⁻¹ | < 1e-05 s⁻¹
C10A A53G C70G |  | 0.000157 ± 4.8e-05 s⁻¹ | 0.000151 ± 4.6e-05 s⁻¹ | 
G40U U55A C71A |  | 0.00279 ± 0.00086 s⁻¹ |  | 0.0227 ± 0.0049 s⁻¹
G29A U47G A53G C61U U65A |  | < 1e-05 s⁻¹ |  | 
